# Legend:
# Experiment in all cases: IEDB peptide-MHC binding, purified MHC/competitive/fluorescence; filed as Kd, often an IC50 or EC50 that approximates it; ≥ and ≤ were set here for values at or beyond the usual limits of such assays
# Settings in all cases: source organism: Salmonella enterica subsp. enterica serovar Typhi
# [1] = target: HLA-B*45:06
# [2] = target: HLA-B*51:01
# [3] = target: HLA-A*68:23
# [4] = target: HLA-C*06:02
# [5] = target: HLA-B*15:42
# [6] = target: HLA-B*40:13
# [7] = target: HLA-A*32:15
# [8] = target: HLA-A*02:01
# [9] = target: HLA-B*58:01
# [10] = target: HLA-C*04:01
# [11] = target: HLA-A*03:19
# [12] = target: HLA-A*32:07
# [13] = target: HLA-B*15:01
sequence,measurement,setting,value
MTMLTRWKI,Kd,[1],≥ 5000 nM
same,Kd,[2],≥ 20000 nM
same,Kd,[3],0.3 nM
same,Kd,[4],641 nM
same,Kd,[5],≥ 5000 nM
same,Kd,[6],365 nM
same,Kd,[7],47.8 nM
same,Kd,[8],222 nM
same,Kd,[9],5 nM
same,Kd,[10],≥ 5000 nM
same,Kd,[11],3510 nM
same,Kd,[12],77.2 nM
same,Kd,[13],≥ 20000 nM
